T1: Corticotropin-releasing hormone (CRH)
T1 construct: 41-amino acid peptide derived from a 196-amino acid preprohormone (Genbank EAW86897.1); also called CRF; CRF peptide
T1 peptide: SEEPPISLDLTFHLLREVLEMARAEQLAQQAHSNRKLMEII


How the values were obtained:
[1] = target: T1, Corticotropin-releasing hormone (CRH); assay: direct CRH ELISA with lysate of transfected HEK 293t cells
Description: ScFv constructs offer the advantage of being able to be delivered to the brain via AAV vectors. DNA constructs for ScFv's composed of the heavy and light variable regions of Antibody A and Antibody B, connected by a linker peptide, were generated. The amino acid sequences of the Antibody A and Antibody B scFvs are set forth in SEQ ID NOs: 22 and 23, respectively. DNA constructs were then transfected into Human Embryonic Kidney (HEK) 293t cells and incubated 48 hours. Cells were then lysed and analyzed for CRH binding via a direct CRH ELISA.

[2] = target: T1, Corticotropin-releasing hormone (CRH); assay: method not stated (FIG. 2, affinity of monoclonal antibodies to CRH)
[3] = target: T1, Corticotropin-releasing hormone (CRH); assay: Octet red BLI, CRF peptide against Antibody B at 300 nM to 0.412 nM; kdis(1/s), same value printed in all seven rows of the table [upper table, CRF peptide]
[4] = target: T1, Corticotropin-releasing hormone (CRH); assay: Octet red BLI, CRF peptide against Antibody B at 300 nM to 0.412 nM; same value printed in all seven rows of the table [upper table, CRF peptide]

binding result [1] | Kd [2] | koff [3] | Kd [4] | kon [4] | Binder
binds | – | – | – | – | ScFv comprising the heavy and light variable regions of Antibody B (scFv, also called Antibody B scFv) scFv: DEVQLQQSGPELVKPGVSMKISCKASGYSFTDSTMNWVKQSHGKNLEWIGLIHPDNGGTIYNQKFKGKATLTVHKSSSTAYMELLSLTSEDSAVYYCANGFAYWGQGTLVTVSAAKTTPPSVYPLAPGSAAGGGGSGGGGSGGGGSDVVMTQTPLSLPVSLGDQASISCRSSQSLLHSNGNTYLHWYLQKPGQSPELLIYKVSNRFSGVPDRFSGSGSGTDFTLKISRVEAEDLGVYFCSQSTHVPLTFGAGTKLELKGSHHHHHHGSDYKDDDDK
– | 20.9 nM | < 1e-07 s⁻¹ | < 0.001 nM | 97500 M⁻¹ s⁻¹ | anti-CRH antibody B (antibody, V domains shown, Mouse monoclonal antibody raised with Peptide B (CRH 1-21), purified (QED bio); It was detected with anti-mouse IgG-HRP, and mouse IgG1 served as isotype control in vivo) VH: EVQLQQSGPELVKPGVSMKISCKASGYSFTDSTMNWVKQSHGKNLEWIGLIHPDNGGTIYNQKFKGKATLTVHKSSSTAYMELLSLTSEDSAVYYCANGFAYWGQGTLVTVSA VL: DVVMTQTPLSLPVSLGDQASISCRSSQSLLHSNGNTYLHWYLQKPGQSPELLIYKVSNRFSGVPDRFSGSGSGTDFTLKISRVEAEDLGVYFCSQSTHVPLTFGAGTKLELK
binds | – | – | – | – | ScFv comprising the heavy and light variable regions of Antibody A (scFv, also called Antibody A scFv) scFv: DGVQCEVKLVESGGGLVKPGGSLKLSCAASGFTFSSYAMSWVRQTPEKRLEWVASISIGGSTYYRDSVKGRCTISRDNAKNILYLQMRSLRSEDTAMYYCARRGMDYWGQGTSVTVSSGGGGSGGGGSGGGGSDIVITQDELSNPVTSGESVSISCRSSKSLLYKDGKTYLNWFLQRPGQSPQLLIYLMSTRASGVSDRFSGSGSGTDFTLEISRVKAEDVGVYYCQQLVEYPLTFGAGTKLELKRASGHHHHHHGSDYKDDDDK
– | < 0.001 nM | – | – | – | anti-CRH antibody A (antibody, V domains shown, Mouse monoclonal antibody raised with Peptide A (CRH 1-15)) VH: EVKLVESGGGLVKPGGSLKLSCAASGFTFSSYAMSWVRQTPEKRLEWVASISIGGSTYYRDSVKGRCTISRDNAKNILYLQMRSLRSEDTAMYYCARRGMDYWGQGTSVTVSS VL: DIVITQDELSNPVTSGESVSISCRSSKSLLYKDGKTYLNWFLQRPGQSPQLLIYLMSTRASGVSDRFSGSGSGTDFTLEISRVKAEDVGVYYCQQLVEYPLTFGAGTKLELK

— patent US20210371514A1 (UNIVERSITY OF FLORIDA RESEARCH FOUNDATION, published 2021)
